Experimental data published in IntAct's records for PubMed 20048159.

B1: Ras-related protein Rab-9A (Homo sapiens), P51151 (parent)
chain: MAGKSSLFKVILLGDGGVGKSSLMNRYVTNKFDTQLFHTIGVEFLNKDLEVDGHFVTMQIWDTAGQERFRSLRTPFYRGSDCCLLTFSVDDSQSFQNLSNWKKEFIYYADVKEPESFPFVILGNKIDISERQVSTEEAQAWCRDNGDYPYFETSAKDATNVAAAFEEAVRRVLATEDRSDHLIQTDTVNLHRKPKPSSSCC
partner: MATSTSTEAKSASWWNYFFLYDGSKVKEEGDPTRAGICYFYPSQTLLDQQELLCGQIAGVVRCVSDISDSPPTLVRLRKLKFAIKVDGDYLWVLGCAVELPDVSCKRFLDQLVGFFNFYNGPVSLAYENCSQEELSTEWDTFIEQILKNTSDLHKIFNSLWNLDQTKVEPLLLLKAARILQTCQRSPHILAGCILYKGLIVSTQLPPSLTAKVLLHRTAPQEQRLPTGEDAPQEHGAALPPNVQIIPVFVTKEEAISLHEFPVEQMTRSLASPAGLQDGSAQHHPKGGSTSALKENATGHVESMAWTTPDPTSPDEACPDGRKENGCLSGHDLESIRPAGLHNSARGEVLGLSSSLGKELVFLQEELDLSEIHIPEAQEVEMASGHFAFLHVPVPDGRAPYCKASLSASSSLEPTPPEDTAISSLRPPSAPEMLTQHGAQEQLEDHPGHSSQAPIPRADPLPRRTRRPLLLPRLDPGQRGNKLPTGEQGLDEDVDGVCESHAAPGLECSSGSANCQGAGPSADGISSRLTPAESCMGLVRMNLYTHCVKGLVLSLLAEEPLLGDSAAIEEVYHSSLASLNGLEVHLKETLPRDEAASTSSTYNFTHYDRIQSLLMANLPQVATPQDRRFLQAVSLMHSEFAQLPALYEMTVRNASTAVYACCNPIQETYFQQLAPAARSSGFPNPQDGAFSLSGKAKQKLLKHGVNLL

Variants of: B1
Conditions: with hps4_human HPS4, Q9NQG7

effect of a mutation on the interaction | Variant
with no effect | Q66L
disrupting interaction strength | F44A;Q66L
with no effect | H38A;Q66L
with no effect | Q66L;L72A
disrupting interaction strength | I40A;Q66L
disrupting interaction strength | W61A;Q66L
with no effect | V42A;Q66L
with no effect | Q35A;Q66L
with no effect | Q66L;F76A
with no effect | T34A;Q66L
